Results as given in the RNAGym collection of RNA variant scans (doi:10.7554/elife.80360).

B1: Hammerhead Ribozyme (parent)
chain: ACCGGAUGUGCUUUCCGGUCUGAUGAGUCCGUGAGGACGAAACAG

Variants of: B1
Assay: self-cleavage, relative activity (ratio to wild type); higher = more cleavage; co-transcriptional

| Variant | self-cleavage |
| --- | --- |
| ACCGGAUGUGUUUUCCGAUCUGAUGAGUCCGUGAGGACGAAACAG [C11U G18A] | 0.428 |
| ACCGGAUUUGCUUUCCGGUCUGAUGAGUCCGUGAGGACGAAACCG [G8U A44C] | 0.59 |
| ACCGGAUGUGCUUUCCGGUCUGAUGAGUCCGUGAGCAGGAAACAG [G36C C38G] | 0.369 |
| CCCGGAUGUACUUUCCGGUCUGAUGAGUCCGUGAGGACGAAACAG [A1C G10A] | 0.38 |
| ACCGGAUGUGCUUUCCGGUCUGAUAAGUGCGUGAGGACGAAACAG [G25A C29G] | 0.347 |
| ACCGGAUGUGGUUUCCGGUCUGAUGAGUCUGUGAGGACGAAACAG [C11G C30U] | 1.28 |
| ACCGGAUGGGCUUUCCGGUCUGUUGAGUCCGUGAGGACGAAACAG [U9G A23U] | 0.366 |
| ACCGGAUGGGCUUUCCGGUCUGAUGAGUCCGUAAGGACGAAACAG [U9G G33A] | 0.988 |
| ACCGGAUGUGCUUUCCGGUCUGAUGAGUCCGUGAUGACGAUACAG [G35U A41U] | 0.311 |
| ACCGGAUGUGCUUUCCGUUCUGAUGAGUCCGUGAGGACGAAAAAG [G18U C43A] | 0.286 |
| ACCGCAUGUACUUUCCGGUCUGAUGAGUCCGUGAGGACGAAACAG [G5C G10A] | 0.638 |
| ACCGGAUGUGCUUUCCGGUAUGAUGAGUCCUUGAGGACGAAACAG [C20A G31U] | 0.475 |
| ACCGGAUGUGCUUUCCGGUCUGAUGAGUCCGCGAGGACGAAACCG [U32C A44C] | 0.678 |
| ACCCGAUGUGCUUCCCGGUCUGAUGAGUCCGUGAGGACGAAACAG [G4C U14C] | 0.475 |
| ACAGGAUGUGCUUUCCGGUCUGAUGGGUCCGUGAGGACGAAACAG [C3A A26G] | 0.253 |
| ACCUGAUGUGCUUUCCAGUCUGAUGAGUCCGUGAGGACGAAACAG [G4U G17A] | 0.316 |
| ACCGGAUUUGCUUUCCGGUCUGAUGAGUCCGUGAGGACCAAACAG [G8U G39C] | 0.417 |
| ACCGGAUGUGCUUUCCGGUCUGAUGAGUCCGUGAUGACGAAACGG [G35U A44G] | 0.943 |
| ACCGGCUGUGCUUUCCGGUCUGAUUAGUCCGUGAGGACGAAACAG [A6C G25U] | 0.219 |

| Variant | self-cleavage |
| --- | --- |
| ACCGGAUGUGCUUUCCGGUCUGAUGAGUCCGUAAGAACGAAACAG [G33A G36A] | 0.894 |
| ACCGGAUGUGCUUUCCGGCCUGAUGAGUCCGUGAGGACGAAACUG [U19C A44U] | 0.258 |
| AACGGACGUGCUUUCCGGUCUGAUGAGUCCGUGAGGACGAAACAG [C2A U7C] | 0.382 |
| CCCGGAUGUGCUUUCCGGUCUGAUGAGUCCGUGAGGACGAAACGG [A1C A44G] | 0.594 |
| ACCGGAUGUGCUGUCCGGUCUGAUGAGUCCGUGAGGACGAAGCAG [U13G A42G] | 0.316 |
| ACCGGAUGUGCUUUCCCGUCUGAUGAGUCCGCGAGGACGAAACAG [G17C U32C] | 0.444 |
| ACCGGAUGUGCUUUCCGGCCUGAUGAGUCCUUGAGGACGAAACAG [U19C G31U] | 0.789 |
| ACCGGAUGUGCUUUCCGGUCUGAUGAGCCCGUGAGGACAAAACAG [U28C G39A] | 0.291 |
| ACCGGAUGUGCUUUCCGGUCUGAUGAGUCCGUGAGUACUAAACAG [G36U G39U] | 0.333 |
| ACCUGAUGUGCUUUCCGAUCUGAUGAGUCCGUGAGGACGAAACAG [G4U G18A] | 0.297 |
| ACCGGAUGUGCAUUCCGGUCUGAUGAGUCCGUGAGGACGAAAUAG [U12A C43U] | 0.392 |
| ACCGGAAGUGCUUGCCGGUCUGAUGAGUCCGUGAGGACGAAACAG [U7A U14G] | 1.14 |
| ACCGGAUAUGCUUUCCGGUCUGAUGAGUCCGUGAGGAAGAAACAG [G8A C38A] | 0.56 |
| CCCGGAUGUGCUUUCCGGUCUGAUGAGUCCAUGAGGACGAAACAG [A1C G31A] | 0.454 |
| ACCGGAUGUGCUUUCCUGUCUGAUGAGUCCGUGAGGACGAUACAG [G17U A41U] | 0.327 |
| AACGGAUGUGCUUUCCGGUCUGAUCAGUCCGUGAGGACGAAACAG [C2A G25C] | 0.359 |
| ACCGGAUGUGCAUUCCGGUCUGAUGAGUUCGUGAGGACGAAACAG [U12A C29U] | 0.881 |
| ACCGGAUGUGCUUUCCGGUCUGAUGAUUCCGUGAGGACGAAGCAG [G27U A42G] | 0.261 |
| ACCGGAUGUGCUUUCCCUUCUGAUGAGUCCGUGAGGACGAAACAG [G17C G18U] | 0.455 |

| Variant | self-cleavage |
| --- | --- |
| ACCAGAUGUGCUUUCCGGUCUGAUGAGGCCGUGAGGACGAAACAG [G4A U28G] | 0.341 |
| ACCGGAUGUGCUUUACGGUCUGAUGAGUCCGUGAGAACGAAACAG [C15A G36A] | 0.407 |
| ACGGGAUGUGCUUUCCGGUCUGAUGAGUCCGUGAGGACGAAGCAG [C3G A42G] | 0.256 |
| AGCGGAUGUGCUUUCCGGUCUGAUGAGUCCGUGAGGAUGAAACAG [C2G C38U] | 0.338 |
| AACGGAUGUACUUUCCGGUCUGAUGAGUCCGUGAGGACGAAACAG [C2A G10A] | 0.934 |
| ACCGGAUGUGUUUUCCGGACUGAUGAGUCCGUGAGGACGAAACAG [C11U U19A] | 0.32 |
| ACCGGAUGUGCUUUCCGGUCUGAUGCGUCCGGGAGGACGAAACAG [A26C U32G] | 0.42 |
| ACCUGAUGUGCUUUCCGGUCUGAUGAGACCGUGAGGACGAAACAG [G4U U28A] | 0.234 |
| ACCCGAUGUGGUUUCCGGUCUGAUGAGUCCGUGAGGACGAAACAG [G4C C11G] | 0.767 |
| ACCGGAUGUGCUUUCCGGUCUGAUGAGUCCGUGAGGCUGAAACAG [A37C C38U] | 0.546 |
| ACCGGAUGUGCUUGCCGGUCUCAUGAGUCCGUGAGGACGAAACAG [U14G G22C] | 0.301 |
| ACGGGAUGUGCUUUCCGGUCUGAUGAGUCCGUGAGGACGAAACUG [C3G A44U] | 0.32 |
| AACGGAUGUGCUUUCCGGUAUGAUGAGUCCGUGAGGACGAAACAG [C2A C20A] | 0.292 |
| ACCGGAUGGGCUUUCUGGUCUGAUGAGUCCGUGAGGACGAAACAG [U9G C16U] | 0.848 |
| ACCGGAUGUGCUUUCAGGUCUGAUGAGUCCGUGAAGACGAAACAG [C16A G35A] | 0.727 |
| ACCCGAUGUGCUUUCCGGUCUGAUCAGUCCGUGAGGACGAAACAG [G4C G25C] | 0.289 |
| ACCGGAUGUGCUUUCCGGUCUGCUGAGUCCGUGAGGACGUAACAG [A23C A40U] | 0.243 |
| AACGGAUGUGCUUUCCGGUCUGAUGAGACCGUGAGGACGAAACAG [C2A U28A] | 0.394 |
| ACCGGAUGUGCUUUCCGGUCUGAUGAGUCGGUGAGGACGAAACCG [C30G A44C] | 0.363 |
